Test results taken from the RNAGym collection of RNA variant scans (doi:10.7554/elife.80360).

B1: Hammerhead Ribozyme (parent)
chain: ACCGGAUGUGCUUUCCGGUCUGAUGAGUCCGUGAGGACGAAACAG

Variants of: B1
Assay: self-cleavage, relative activity (ratio to wild type); higher = more cleavage; co-transcriptional
In the case of ACCGGAUGUGCUUACCGGUCUGAUGAGUCCGUGAGGACGAAAGAG [U14A C43G], the self-cleavage is reported as 0.334. In the case of ACCGGAUGUGCUUACCGGUCUGAUGAGUCCGUGAGGACGAAAAAG [U14A C43A], the self-cleavage is reported as 0.333. Work on ACCGGAUGUGCUUACCGGUCUGAUGAGUCCGUGAGGACGAAAUAG [U14A C43U] yielded a self-cleavage of 0.41. Work on ACCGGAUGUGCUUAGCGGUCUGAUGAGUCCGUGAGGACGAAACAG [U14A C15G] yielded a self-cleavage of 0.722. In the case of ACCGGAUGUGCUUAACGGUCUGAUGAGUCCGUGAGGACGAAACAG [U14A C15A], the self-cleavage is reported as 1.09. Variant ACCGGAUGUGCUUAUCGGUCUGAUGAGUCCGUGAGGACGAAACAG [U14A C15U] has a self-cleavage of 0.994. For ACCGGAUGUGCUUACCUGUCUGAUGAGUCCGUGAGGACGAAACAG [U14A G17U], the self-cleavage was 0.564. For ACCGGAUGUGCUUACCAGUCUGAUGAGUCCGUGAGGACGAAACAG [U14A G17A], the self-cleavage was 0.586. ACCGGAUGUGCUUACCCGUCUGAUGAGUCCGUGAGGACGAAACAG [U14A G17C] gave a self-cleavage of 0.375. In the case of ACCGGAUGUGCUUACCGGUCUGAUGAGUCCGUGAGGACGAUACAG [U14A A41U], the self-cleavage is reported as 0.296. Work on ACCGGAUGUGCUUACCGGUCUGAUGAGUCCGUGAGGACGACACAG [U14A A41C] yielded a self-cleavage of 0.302. Work on ACCGGAUGUGCUUACCGGUCUGAUGAGUCCGUGAGGACGAGACAG [U14A A41G] yielded a self-cleavage of 0.28. In the case of ACCGGAUGUGCUUACCGGUCUGAUAAGUCCGUGAGGACGAAACAG [U14A G25A], the self-cleavage is reported as 0.28. With ACCGGAUGUGCUUACCGGUCUGAUUAGUCCGUGAGGACGAAACAG [U14A G25U] the self-cleavage was 0.297. ACCGGAUGUGCUUACCGGUCUGAUCAGUCCGUGAGGACGAAACAG [U14A G25C] gave a self-cleavage of 0.288. In the case of ACCGGAUGUGCUGUCCGGUCUGAUGAGUCCGUGAGGACGAAACAA [U13G G45A], the self-cleavage is reported as 0.719. ACCGGAUGUGCUGUCCGGUCUGAUGAGUCCGUGAGGACGAAACAC [U13G G45C] showed a self-cleavage of 0.596. Variant ACCGGAUGUGCUGUCCGGUCUGAUGAGUCCGUGAGGACGAAACAU [U13G G45U] has a self-cleavage of 0.702. ACCGGAUGUGCUUACCGGUCUGAUGAGUCCGUGCGGACGAAACAG [U14A A34C] gave a self-cleavage of 1.05. ACCGGAUGUGCUUACCGGUCUGAUGAGUCCGUGGGGACGAAACAG [U14A A34G] gave a self-cleavage of 0.73. Work on ACCGGAUGUGCUUACCGGUCUGAUGAGUCCGUGUGGACGAAACAG [U14A A34U] yielded a self-cleavage of 0.903. For ACCGGAUGUGCUUACCGGUAUGAUGAGUCCGUGAGGACGAAACAG [U14A C20A], the self-cleavage was 0.44. ACCGGAUGUGCUUACCGGUGUGAUGAGUCCGUGAGGACGAAACAG [U14A C20G] gave a self-cleavage of 0.346. Variant ACCGGAUGUGCUUACCGGUUUGAUGAGUCCGUGAGGACGAAACAG [U14A C20U] has a self-cleavage of 0.398. Work on ACCGGAUGUGCUUACCGGUCUGAUGAGUCCGUGAGGAUGAAACAG [U14A C38U] yielded a self-cleavage of 0.926. In the case of ACCGGAUGUGCUUACCGGUCUGAUGAGUCCGUGAGGAGGAAACAG [U14A C38G], the self-cleavage is reported as 0.574. ACCGGAUGUGCUUACCGGUCUGAUGAGUCCGUGAGGAAGAAACAG [U14A C38A] showed a self-cleavage of 0.54. In the case of ACCGGAUGUGCUGUCCGGUCUGAUGAGUCCGUGAGUACGAAACAG [U13G G36U], the self-cleavage is reported as 0.658. Variant ACCGGAUGUGCUGUCCGGUCUGAUGAGUCCGUGAGAACGAAACAG [U13G G36A] has a self-cleavage of 0.628. In the case of ACCGGAUGUGCUGUCCGGUCUGAUGAGUCCGUGAGCACGAAACAG [U13G G36C], the self-cleavage is reported as 0.709. ACCGGAUGUGCUUACAGGUCUGAUGAGUCCGUGAGGACGAAACAG [U14A C16A] gave a self-cleavage of 0.592. Variant ACCGGAUGUGCUUACUGGUCUGAUGAGUCCGUGAGGACGAAACAG [U14A C16U] has a self-cleavage of 0.798. ACCGGAUGUGCUUACGGGUCUGAUGAGUCCGUGAGGACGAAACAG [U14A C16G] gave a self-cleavage of 0.403. With ACCGGAUGUGCUGCCCGGUCUGAUGAGUCCGUGAGGACGAAACAG [U13G U14C] the self-cleavage was 0.598. ACCGGAUGUGCUGGCCGGUCUGAUGAGUCCGUGAGGACGAAACAG [U13G U14G] showed a self-cleavage of 0.796. ACCGGAUGUGCUGACCGGUCUGAUGAGUCCGUGAGGACGAAACAG [U13G U14A] gave a self-cleavage of 0.428. Work on ACCGGAUGUGCUUACCGGUCUGAUGAGUCCUUGAGGACGAAACAG [U14A G31U] yielded a self-cleavage of 1.31. Variant ACCGGAUGUGCUUACCGGUCUGAUGAGUCCCUGAGGACGAAACAG [U14A G31C] has a self-cleavage of 1.01. In the case of ACCGGAUGUGCUUACCGGUCUGAUGAGUCCAUGAGGACGAAACAG [U14A G31A], the self-cleavage is reported as 0.81. In the case of ACCGGAUGUGCUGUCCGGUCCGAUGAGUCCGUGAGGACGAAACAG [U13G U21C], the self-cleavage is reported as 0.579. With ACCGGAUGUGCUGUCCGGUCGGAUGAGUCCGUGAGGACGAAACAG [U13G U21G] the self-cleavage was 0.537. For ACCGGAUGUGCUGUCCGGUCAGAUGAGUCCGUGAGGACGAAACAG [U13G U21A], the self-cleavage was 0.507. Work on ACCGGAUGUGCUUACCGGUCUCAUGAGUCCGUGAGGACGAAACAG [U14A G22C] yielded a self-cleavage of 0.327. ACCGGAUGUGCUUACCGGUCUAAUGAGUCCGUGAGGACGAAACAG [U14A G22A] showed a self-cleavage of 0.36. For ACCGGAUGUGCUUACCGGUCUUAUGAGUCCGUGAGGACGAAACAG [U14A G22U], the self-cleavage was 0.331. For ACCGGAUGUGCUUACCGGUCUGAUGAGUCCGUGAGGACGAAACAG [U14A], the self-cleavage was 0.954. Work on ACCGGAUGUGCUUACCGGUCUGAUGAGUCCGUGAGGACGAAACUG [U14A A44U] yielded a self-cleavage of 0.417. ACCGGAUGUGCUUACCGGUCUGAUGAGUCCGUGAGGACGAAACCG [U14A A44C] showed a self-cleavage of 0.414. In the case of ACCGGAUGUGCUUACCGGUCUGAUGAGUCCGUGAGGACGAAACGG [U14A A44G], the self-cleavage is reported as 1.06. Variant ACCGGAUGUGCUGUCCGGUCUGAUGAGUCCCUGAGGACGAAACAG [U13G G31C] has a self-cleavage of 0.943. ACCGGAUGUGCUGUCCGGUCUGAUGAGUCCUUGAGGACGAAACAG [U13G G31U] gave a self-cleavage of 0.82. With ACCGGAUGUGCUUACCGGUCUGGUGAGUCCGUGAGGACGAAACAG [U14A A23G] the self-cleavage was 0.351. In the case of ACCGGAUGUGCUUACCGGUCUGUUGAGUCCGUGAGGACGAAACAG [U14A A23U], the self-cleavage is reported as 0.272. ACCGGAUGUGCUUACCGGUCUGCUGAGUCCGUGAGGACGAAACAG [U14A A23C] gave a self-cleavage of 0.345. For ACCGGAUGUGCUUACCGGUCUGAUGAGUCCGUGAGGACGAAACAA [U14A G45A], the self-cleavage was 0.765. For ACCGGAUGUGCUUACCGGUCUGAUGAGUCCGUGAGGACGAAACAU [U14A G45U], the self-cleavage was 0.715. In the case of ACCGGAUGUGCUUACCGGUCUGAUGAGUCCGUGAGGACGAAACAC [U14A G45C], the self-cleavage is reported as 0.636.
